Data: publication PMC6430397, “The pharmacological properties of 3-arm or 4-arm DOTA constructs for conjugation to α-melanocyte-stimulating hormone analogues for melanoma imaging” (PLoS ONE, 2019)
Where two headings read alike, the source gives them in different places.

Columns and labels:
[1] = Biological distribution in B16-F1 melanoma-bearing mice; assay type: in vivo, mouse; details: male, C57BL6, mouse, in vivo, iv, 37 kBq/mouse, total radioactivity, mean, n = 3 mice; for tissue uptake at 10 min / tissue uptake dose at 10 min: 10 min after i.v. 37 kBq/mouse; for tissue uptake at 0.5 h / tissue uptake dose at 0.5 h: 30 min after i.v. 37 kBq/mouse; for tissue uptake at 1 h / tissue uptake dose at 1 h: 60 min after i.v. 37 kBq/mouse; for tissue uptake at 2 h / tissue uptake dose at 2 h: 120 min after i.v. 37 kBq/mouse; for tissue uptake at 3 h / tissue uptake dose at 3 h: 180 min after i.v. 37 kBq/mouse
Procedure: (§1) C57BL6 male mice (5 weeks old) were transplanted with B16-F1 cells (5 × 10^5 cells/100 μL) into the thigh of the mice. […] The mice were housed and continuously monitored each day for 2 weeks in a 12-hour light/12-hour dark cycle with free access to food and water. The tumor size reached 8.7 ± 2.8 mm at 2 weeks after transplant of cells. Two mice with tumor sizes of 13 and 15 mm were excluded from our experiments. Mice with a tumor size <10 mm were fasted with no food overnight with water supplied ad libitum before experiments.
(§2) For biological distribution studies, B16-F1-bearing mice were administered ^111In-labeled 3-arm or 4-arm DOTA-α-MSH via the tail vein (37 kBq/mouse). At 10, 30, 60, 120, and 180 min after injection, the mice were euthanized under isoflurane (n = 3 per time point), and the following tissues were collected: brain, lung, heart, stomach, liver, small intestine, large intestine, kidney, blood, muscle, and B16-F1 melanoma. Tissues were weighed, and radioactivity was quantified using an automated γ-ray counter to calculate the percent injected dose (%ID) or percent injected dose per gram of tissue (%ID/g).
(§3) For SPECT imaging, ^111In-labeled 3-arm or 4-arm DOTA-α-MSH was injected into the tail vein of four B16-F1-bearing mice in total (37 MBq/mouse). For SPECT imaging, acquisition was started at 10 min after injection and continued every 10 min for 180 min. The data were reconstructed using the ordered subset expectation maximization method with 16 subsets and six iterations including no scatter and attenuation correction. The voxel size was set to 0.8×0.8×0.8 mm. Post-reconstruction smoothing filtering was applied using a 1.0-mm Gaussian filter. […] In these images, three to five regions of interest were placed over the kidney, muscle, and B16-F1 melanoma in which accumulation could be seen, and the time activity curve of each was obtained as the %ID/g.

[2] = test system: B16-F1 melanoma-bearing mice; assay: as above; assay type: in vivo, mouse; details: for Melanoma-to-blood ratio / Melanoma-to-kidney ratio / Melanoma-to-muscle ratio: mean ± SD, four mice
Procedure: as §1, §2, §3

[3] = read-out: Biological distribution, Blood
[4] = read-out: Biological distribution, Brain
[5] = read-out: Biological distribution, Heart
[6] = read-out: Biological distribution, Kidney
[7] = read-out: Biological distribution, Large intestine
[8] = read-out: Biological distribution, Liver
[9] = read-out: Biological distribution, Lung
[10] = read-out: Biological distribution, Muscle
[11] = read-out: Biological distribution, Small intestine
[12] = read-out: Biological distribution, Stomach
[13] = B16-F1 melanoma, read-out: Biological distribution, Melanoma
[14] = average over all acquisition time points

CSCC[C@H](NC(=O)[C@H](CO)NC(=O)[C@H](Cc1ccc(O)cc1)NC(=O)[C@H](CO)NC(C)=O)C(=O)N[C@@H](CCC(=O)O)C(=O)N[C@@H](Cc1c[nH]cn1)C(=O)N[C@@H](Cc1ccccc1)C(=O)N[C@@H](CCCNC(=N)N)C(=O)N[C@@H](Cc1c[nH]c2ccccc12)C(=O)NCC(=O)N[C@@H](CCCCNC(=S)Nc1ccc(C[C@H]2CN(CC(=O)O)CCN(CC(=O)O)CCN(CC(=O)O)CCN2CC(=O)O)cc1)C(=O)N1CCC[C@H]1C(=O)N[C@H](C(=O)O)C(C)C [^111In-labeled 4-arm DOTA-α-MSH, metal not drawn]
tissue uptake at 10 min [1, 3]: 4.03 %ID/g | tissue uptake at 10 min [1, 4]: 0.04 %ID/g | tissue uptake at 10 min [1, 5]: 0.55 %ID/g | tissue uptake at 10 min [1, 6]: 17.1 %ID/g | tissue uptake dose at 10 min [1, 7]: 0.03 %ID | tissue uptake at 10 min [1, 8]: 2.52 %ID/g | tissue uptake at 10 min [1, 9]: 0.42 %ID/g | tissue uptake at 10 min [1, 10]: 0.1 %ID/g | tissue uptake dose at 10 min [1, 11]: 0.05 %ID | tissue uptake dose at 10 min [1, 12]: 0.09 %ID | tissue uptake at 0.5 h [1, 3]: 2.02 %ID/g | tissue uptake at 0.5 h [1, 4]: 0.03 %ID/g | tissue uptake at 0.5 h [1, 5]: 0.46 %ID/g | tissue uptake at 0.5 h [1, 6]: 13.3 %ID/g | tissue uptake dose at 0.5 h [1, 7]: 0.03 %ID | tissue uptake at 0.5 h [1, 8]: 1.45 %ID/g | tissue uptake at 0.5 h [1, 9]: 0.52 %ID/g | tissue uptake at 0.5 h [1, 10]: 0.12 %ID/g | tissue uptake dose at 0.5 h [1, 11]: 0.04 %ID | tissue uptake dose at 0.5 h [1, 12]: 0.09 %ID | tissue uptake at 1 h [1, 3]: 1.01 %ID/g | tissue uptake at 1 h [1, 4]: 0.03 %ID/g | tissue uptake at 1 h [1, 5]: 0.38 %ID/g | tissue uptake at 1 h [1, 6]: 8.12 %ID/g | tissue uptake dose at 1 h [1, 7]: 0.04 %ID | tissue uptake at 1 h [1, 8]: 1.18 %ID/g | tissue uptake at 1 h [1, 9]: 0.22 %ID/g | tissue uptake at 1 h [1, 10]: 0.08 %ID/g | tissue uptake dose at 1 h [1, 11]: 0.03 %ID | tissue uptake dose at 1 h [1, 12]: 0.08 %ID | tissue uptake at 2 h [1, 3]: 0.11 %ID/g | tissue uptake at 2 h [1, 4]: 0.02 %ID/g | tissue uptake at 2 h [1, 5]: 0.14 %ID/g | tissue uptake at 2 h [1, 6]: 6.31 %ID/g | tissue uptake dose at 2 h [1, 7]: 0.03 %ID | tissue uptake at 2 h [1, 8]: 0.9 %ID/g | tissue uptake at 2 h [1, 9]: 0.13 %ID/g | tissue uptake at 2 h [1, 10]: 0.04 %ID/g | tissue uptake dose at 2 h [1, 11]: 0.02 %ID | tissue uptake dose at 2 h [1, 12]: 0.05 %ID | tissue uptake at 3 h [1, 3]: 0.03 %ID/g | tissue uptake at 3 h [1, 4]: 0.01 %ID/g | tissue uptake at 3 h [1, 5]: 0.05 %ID/g | tissue uptake at 3 h [1, 6]: 5.19 %ID/g | tissue uptake dose at 3 h [1, 7]: 0.03 %ID | tissue uptake at 3 h [1, 8]: 0.61 %ID/g | tissue uptake at 3 h [1, 9]: 0.06 %ID/g | tissue uptake at 3 h [1, 10]: 0.03 %ID/g | tissue uptake dose at 3 h [1, 11]: 0.02 %ID | tissue uptake dose at 3 h [1, 12]: 0.05 %ID | tissue uptake at 10 min [1, 13]: 2.22 %ID/g | tissue uptake at 0.5 h [1, 13]: 2.25 %ID/g | tissue uptake at 1 h [1, 13]: 3.34 %ID/g | tissue uptake at 2 h [1, 13]: 4.52 %ID/g | tissue uptake at 3 h [1, 13]: 4.83 %ID/g | Melanoma-to-blood ratio ([2]; 10 min after injection): 0.55 ± 0.14 | Melanoma-to-kidney ratio ([2]; 10 min after injection): 0.13 ± 0.07 | Melanoma-to-muscle ratio ([2]; 10 min after injection): 22.20 ± 3.35 | Melanoma-to-blood ratio ([2]; 30 min after injection): 1.11 ± 0.28 | Melanoma-to-kidney ratio ([2]; 30 min after injection): 0.17 ± 0.11 | Melanoma-to-muscle ratio ([2]; 30 min after injection): 18.75 ± 4.45 | Melanoma-to-blood ratio ([2]; 60 min after injection): 3.31 ± 0.35 | Melanoma-to-kidney ratio ([2]; 60 min after injection): 0.41 ± 0.15 | Melanoma-to-muscle ratio ([2]; 60 min after injection): 41.75 ± 6.38 | Melanoma-to-blood ratio ([2]; 120 min after injection): 41.09 ± 4.78 | Melanoma-to-kidney ratio ([2]; 120 min after injection): 0.72 ± 0.18 | Melanoma-to-muscle ratio ([2]; 120 min after injection): 113.00 ± 7.33 | Melanoma-to-blood ratio ([2]; 180 min after injection): 155.81 ± 12.93 | Melanoma-to-kidney ratio ([2]; 180 min after injection): 0.93 ± 0.15 | Melanoma-to-muscle ratio ([2]; 180 min after injection): 155.81 | Melanoma-to-muscle ratio ([2]; 180 min after injection, listed as 4-arm DOTA-α-MSH): 155.81 ± 8.63 | Higher average accumulation in B16-F1 melanoma than 111In-labeled 3-arm DOTA-α-MSH [2, 14]: 1.32 fold | Lower average accumulation in kidney than 111In-labeled 3-arm DOTA-α-MSH [2, 14]: 1.38 fold
